Numbered stars: 1 amine (or outer) side, 2 acyl side, 3 side chain; on linkers, the order of the positions; unused ones are H or OH. Bridge positions count the residues as written; N and C are the ends. Side chains are listed from the residue outwards. Ends that are not written are not given here. * marks the point of attachment. C20 diacid = O=C(O)CCCCCCCCCCCCCCCCCCC(=O)*; γGlu = O=C(O)[C@H](CCC(=O)[*:2])N[*:1]; AEEA = NCCOCCOCC(=O)O
T1: human amylin receptor (amylin 3(a) receptor: human calcitonin receptor plus RAMP-3) (human, UniProt P30988 25-474; O60896 24-148, limits assumed)
T1 sequence (looked up) 1: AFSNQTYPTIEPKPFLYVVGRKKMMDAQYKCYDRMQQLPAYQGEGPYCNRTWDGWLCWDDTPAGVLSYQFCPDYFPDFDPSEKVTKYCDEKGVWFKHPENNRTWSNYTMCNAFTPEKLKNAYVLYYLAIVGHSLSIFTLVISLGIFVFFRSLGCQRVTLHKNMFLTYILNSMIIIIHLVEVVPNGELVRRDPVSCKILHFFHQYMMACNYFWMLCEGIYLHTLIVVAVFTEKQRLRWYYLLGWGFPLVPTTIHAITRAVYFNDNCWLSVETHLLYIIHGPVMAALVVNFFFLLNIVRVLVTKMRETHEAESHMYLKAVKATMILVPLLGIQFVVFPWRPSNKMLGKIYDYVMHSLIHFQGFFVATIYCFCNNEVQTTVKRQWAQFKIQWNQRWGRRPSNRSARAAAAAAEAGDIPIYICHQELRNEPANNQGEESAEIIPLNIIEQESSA
T1 sequence (looked up) 2: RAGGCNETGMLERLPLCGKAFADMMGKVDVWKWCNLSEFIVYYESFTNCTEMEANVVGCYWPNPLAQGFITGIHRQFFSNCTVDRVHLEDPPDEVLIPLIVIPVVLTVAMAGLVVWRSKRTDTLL

T2: human calcitonin receptor (human, UniProt P30988 25-474)
T2 sequence (looked up): T1 sequence (looked up) 1

B1: N^α1-[(4S)-4-carboxy-4-(19-carboxynonadecanoylamino)butanoyl]-[Arg17,Pro21,Pro27,Pro31,Glu35]-h-amylin (peptide)
peptide: {C20 diacid-γGlu}-KCNTATCATQRLANFLRHSSPNFGAIPSSTPVGSETY-NH2
modifications: disulfide 2-7
SMILES: CC[C@H](C)[C@H](NC(=O)[C@H](C)NC(=O)CNC(=O)[C@H](Cc1ccccc1)NC(=O)[C@H](CC(N)=O)NC(=O)[C@@H]1CCCN1C(=O)[C@H](CO)NC(=O)[C@H](CO)NC(=O)[C@H](Cc1c[nH]cn1)NC(=O)[C@H](CCCNC(=N)N)NC(=O)[C@H](CC(C)C)NC(=O)[C@H](Cc1ccccc1)NC(=O)[C@H](CC(N)=O)NC(=O)[C@H](C)NC(=O)[C@H](CC(C)C)NC(=O)[C@H](CCCNC(=N)N)NC(=O)[C@H](CCC(N)=O)NC(=O)[C@@H](NC(=O)[C@H](C)NC(=O)[C@@H]1CSSC[C@H](NC(=O)[C@H](CCCCN)NC(=O)CC[C@H](NC(=O)CCCCCCCCCCCCCCCCCCC(=O)O)C(=O)O)C(=O)N[C@@H](CC(N)=O)C(=O)N[C@@H]([C@@H](C)O)C(=O)N[C@@H](C)C(=O)N[C@@H]([C@@H](C)O)C(=O)N1)[C@@H](C)O)C(=O)N1CCC[C@H]1C(=O)N[C@@H](CO)C(=O)N[C@@H](CO)C(=O)N[C@H](C(=O)N1CCC[C@H]1C(=O)N[C@H](C(=O)NCC(=O)N[C@@H](CO)C(=O)N[C@@H](CCC(=O)O)C(=O)N[C@H](C(=O)N[C@@H](Cc1ccc(O)cc1)C(N)=O)[C@@H](C)O)C(C)C)[C@@H](C)O
notes: also called compound 28
B2: N^α1-[(4S)-4-carboxy-4-(19-carboxynonadecanoylamino)butanoyl]-[Glu14,Arg17,Pro21,Pro27,Arg35]-h-amylin (peptide)
peptide: {C20 diacid-γGlu}-KCNTATCATQRLAEFLRHSSPNFGAIPSSTNVGSRTY-NH2
modifications: disulfide 2-7
SMILES: CC[C@H](C)[C@H](NC(=O)[C@H](C)NC(=O)CNC(=O)[C@H](Cc1ccccc1)NC(=O)[C@H](CC(N)=O)NC(=O)[C@@H]1CCCN1C(=O)[C@H](CO)NC(=O)[C@H](CO)NC(=O)[C@H](Cc1c[nH]cn1)NC(=O)[C@H](CCCNC(=N)N)NC(=O)[C@H](CC(C)C)NC(=O)[C@H](Cc1ccccc1)NC(=O)[C@H](CCC(=O)O)NC(=O)[C@H](C)NC(=O)[C@H](CC(C)C)NC(=O)[C@H](CCCNC(=N)N)NC(=O)[C@H](CCC(N)=O)NC(=O)[C@@H](NC(=O)[C@H](C)NC(=O)[C@@H]1CSSC[C@H](NC(=O)[C@H](CCCCN)NC(=O)CC[C@H](NC(=O)CCCCCCCCCCCCCCCCCCC(=O)O)C(=O)O)C(=O)N[C@@H](CC(N)=O)C(=O)N[C@@H]([C@@H](C)O)C(=O)N[C@@H](C)C(=O)N[C@@H]([C@@H](C)O)C(=O)N1)[C@@H](C)O)C(=O)N1CCC[C@H]1C(=O)N[C@@H](CO)C(=O)N[C@@H](CO)C(=O)N[C@H](C(=O)N[C@@H](CC(N)=O)C(=O)N[C@H](C(=O)NCC(=O)N[C@@H](CO)C(=O)N[C@@H](CCCNC(=N)N)C(=O)N[C@H](C(=O)N[C@@H](Cc1ccc(O)cc1)C(N)=O)[C@@H](C)O)C(C)C)[C@@H](C)O
notes: also called compound 16
B3: N^α1-[(4S)-4-carboxy-4-(19-carboxynonadecanoylamino)butanoyl]-[Glu14,Arg17,Pro21,Pro27,Pro31]-h-amylin (peptide)
peptide: {C20 diacid-γGlu}-KCNTATCATQRLAEFLRHSSPNFGAIPSSTPVGSNTY-NH2
modifications: disulfide 2-7
SMILES: CC[C@H](C)[C@H](NC(=O)[C@H](C)NC(=O)CNC(=O)[C@H](Cc1ccccc1)NC(=O)[C@H](CC(N)=O)NC(=O)[C@@H]1CCCN1C(=O)[C@H](CO)NC(=O)[C@H](CO)NC(=O)[C@H](Cc1c[nH]cn1)NC(=O)[C@H](CCCNC(=N)N)NC(=O)[C@H](CC(C)C)NC(=O)[C@H](Cc1ccccc1)NC(=O)[C@H](CCC(=O)O)NC(=O)[C@H](C)NC(=O)[C@H](CC(C)C)NC(=O)[C@H](CCCNC(=N)N)NC(=O)[C@H](CCC(N)=O)NC(=O)[C@@H](NC(=O)[C@H](C)NC(=O)[C@@H]1CSSC[C@H](NC(=O)[C@H](CCCCN)NC(=O)CC[C@H](NC(=O)CCCCCCCCCCCCCCCCCCC(=O)O)C(=O)O)C(=O)N[C@@H](CC(N)=O)C(=O)N[C@@H]([C@@H](C)O)C(=O)N[C@@H](C)C(=O)N[C@@H]([C@@H](C)O)C(=O)N1)[C@@H](C)O)C(=O)N1CCC[C@H]1C(=O)N[C@@H](CO)C(=O)N[C@@H](CO)C(=O)N[C@H](C(=O)N1CCC[C@H]1C(=O)N[C@H](C(=O)NCC(=O)N[C@@H](CO)C(=O)N[C@@H](CC(N)=O)C(=O)N[C@H](C(=O)N[C@@H](Cc1ccc(O)cc1)C(N)=O)[C@@H](C)O)C(C)C)[C@@H](C)O
notes: also called compound 31
B4: N^ε1-[2-[2-[2-[[2-[2-[2-[[(4S)-4-carboxy-4-(19-carboxynonadecanoylamino)butanoyl]amino]ethoxy]ethoxy]acetyl]amino]ethoxy]ethoxy]acetyl]-[Arg17,Pro21,Pro27,Glu35 … (peptide)
peptide: K([AEEA-AEEA-γGlu-C20 diacid])CNTATCATQRLANFLRHSSPNFGAIPSSTNVGSETY-NH2
modifications: disulfide 2-7; N-terminus assumed
SMILES: CC[C@H](C)[C@H](NC(=O)[C@H](C)NC(=O)CNC(=O)[C@H](Cc1ccccc1)NC(=O)[C@H](CC(N)=O)NC(=O)[C@@H]1CCCN1C(=O)[C@H](CO)NC(=O)[C@H](CO)NC(=O)[C@H](Cc1c[nH]cn1)NC(=O)[C@H](CCCNC(=N)N)NC(=O)[C@H](CC(C)C)NC(=O)[C@H](Cc1ccccc1)NC(=O)[C@H](CC(N)=O)NC(=O)[C@H](C)NC(=O)[C@H](CC(C)C)NC(=O)[C@H](CCCNC(=N)N)NC(=O)[C@H](CCC(N)=O)NC(=O)[C@@H](NC(=O)[C@H](C)NC(=O)[C@@H]1CSSC[C@H](NC(=O)[C@@H](N)CCCCNC(=O)COCCOCCNC(=O)COCCOCCNC(=O)CC[C@H](NC(=O)CCCCCCCCCCCCCCCCCCC(=O)O)C(=O)O)C(=O)N[C@@H](CC(N)=O)C(=O)N[C@@H]([C@@H](C)O)C(=O)N[C@@H](C)C(=O)N[C@@H]([C@@H](C)O)C(=O)N1)[C@@H](C)O)C(=O)N1CCC[C@H]1C(=O)N[C@@H](CO)C(=O)N[C@@H](CO)C(=O)N[C@H](C(=O)N[C@@H](CC(N)=O)C(=O)N[C@H](C(=O)NCC(=O)N[C@@H](CO)C(=O)N[C@@H](CCC(=O)O)C(=O)N[C@H](C(=O)N[C@@H](Cc1ccc(O)cc1)C(N)=O)[C@@H](C)O)C(C)C)[C@@H](C)O
notes: also called compound 25
B5: N^α1-[(4S)-4-carboxy-4-(19-carboxynonadecanoylamino)butanoyl]-[His14,Arg17,Pro21,Pro27,Glu35]-h-amylin (peptide)
peptide: {C20 diacid-γGlu}-KCNTATCATQRLAHFLRHSSPNFGAIPSSTNVGSETY-NH2
modifications: disulfide 2-7
SMILES: CC[C@H](C)[C@H](NC(=O)[C@H](C)NC(=O)CNC(=O)[C@H](Cc1ccccc1)NC(=O)[C@H](CC(N)=O)NC(=O)[C@@H]1CCCN1C(=O)[C@H](CO)NC(=O)[C@H](CO)NC(=O)[C@H](Cc1c[nH]cn1)NC(=O)[C@H](CCCNC(=N)N)NC(=O)[C@H](CC(C)C)NC(=O)[C@H](Cc1ccccc1)NC(=O)[C@H](Cc1c[nH]cn1)NC(=O)[C@H](C)NC(=O)[C@H](CC(C)C)NC(=O)[C@H](CCCNC(=N)N)NC(=O)[C@H](CCC(N)=O)NC(=O)[C@@H](NC(=O)[C@H](C)NC(=O)[C@@H]1CSSC[C@H](NC(=O)[C@H](CCCCN)NC(=O)CC[C@H](NC(=O)CCCCCCCCCCCCCCCCCCC(=O)O)C(=O)O)C(=O)N[C@@H](CC(N)=O)C(=O)N[C@@H]([C@@H](C)O)C(=O)N[C@@H](C)C(=O)N[C@@H]([C@@H](C)O)C(=O)N1)[C@@H](C)O)C(=O)N1CCC[C@H]1C(=O)N[C@@H](CO)C(=O)N[C@@H](CO)C(=O)N[C@H](C(=O)N[C@@H](CC(N)=O)C(=O)N[C@H](C(=O)NCC(=O)N[C@@H](CO)C(=O)N[C@@H](CCC(=O)O)C(=O)N[C@H](C(=O)N[C@@H](Cc1ccc(O)cc1)C(N)=O)[C@@H](C)O)C(C)C)[C@@H](C)O
notes: also called compound 30
B6: N^ε1-[2-[2-[2-(19-carboxynonadecanoylamino)ethoxy]ethoxy]acetyl]-[Arg17,Pro21,Pro27]-h-amylin (peptide)
peptide: K([AEEA-C20 diacid])CNTATCATQRLANFLRHSSPNFGAIPSSTNVGSNTY-NH2
modifications: disulfide 2-7; N-terminus assumed
SMILES: CC[C@H](C)[C@H](NC(=O)[C@H](C)NC(=O)CNC(=O)[C@H](Cc1ccccc1)NC(=O)[C@H](CC(N)=O)NC(=O)[C@@H]1CCCN1C(=O)[C@H](CO)NC(=O)[C@H](CO)NC(=O)[C@H](Cc1c[nH]cn1)NC(=O)[C@H](CCCNC(=N)N)NC(=O)[C@H](CC(C)C)NC(=O)[C@H](Cc1ccccc1)NC(=O)[C@H](CC(N)=O)NC(=O)[C@H](C)NC(=O)[C@H](CC(C)C)NC(=O)[C@H](CCCNC(=N)N)NC(=O)[C@H](CCC(N)=O)NC(=O)[C@@H](NC(=O)[C@H](C)NC(=O)[C@@H]1CSSC[C@H](NC(=O)[C@@H](N)CCCCNC(=O)COCCOCCNC(=O)CCCCCCCCCCCCCCCCCCC(=O)O)C(=O)N[C@@H](CC(N)=O)C(=O)N[C@@H]([C@@H](C)O)C(=O)N[C@@H](C)C(=O)N[C@@H]([C@@H](C)O)C(=O)N1)[C@@H](C)O)C(=O)N1CCC[C@H]1C(=O)N[C@@H](CO)C(=O)N[C@@H](CO)C(=O)N[C@H](C(=O)N[C@@H](CC(N)=O)C(=O)N[C@H](C(=O)NCC(=O)N[C@@H](CO)C(=O)N[C@@H](CC(N)=O)C(=O)N[C@H](C(=O)N[C@@H](Cc1ccc(O)cc1)C(N)=O)[C@@H](C)O)C(C)C)[C@@H](C)O
notes: also called compound 43

Biological target: T1, human amylin receptor (amylin 3(a) …)
Assay: cell-based or functional assay

hAmylin-R funct. EC50	Binder
0.22 nM	B1
0.363 nM	B2
0.112 nM	B3
0.217 nM	B4
0.134 nM	B5
0.141 nM	B6

Biological target: T2, human calcitonin receptor
Assay: cell-based or functional assay

Ratio hCT/hAmylin funct. (hCTR EC50 against hAmylin-R EC50)	hCTR funct. EC50	Binder
9.2	2.03 nM	B1
6.1	2.21 nM	B2
6.4	0.717 nM	B3
46.2	10 nM	B4
–	1.68 nM	B5
6.5	0.92 nM	B6
